Measured values: patent publication US20220363757A1 (SYMPHOGEN A S, published 2022)
Substitutions are numbered along the chain they refer to. Numbers in names are those of the source.

Key:
[1] = target: T1, human LAG-3 on transiently transfected CHO-S cells (human, UniProt P18627 23-525); experiment: flow cytometry on transfected CHO-S cells
T1 construct: also called huLAG-3
T1 sequence: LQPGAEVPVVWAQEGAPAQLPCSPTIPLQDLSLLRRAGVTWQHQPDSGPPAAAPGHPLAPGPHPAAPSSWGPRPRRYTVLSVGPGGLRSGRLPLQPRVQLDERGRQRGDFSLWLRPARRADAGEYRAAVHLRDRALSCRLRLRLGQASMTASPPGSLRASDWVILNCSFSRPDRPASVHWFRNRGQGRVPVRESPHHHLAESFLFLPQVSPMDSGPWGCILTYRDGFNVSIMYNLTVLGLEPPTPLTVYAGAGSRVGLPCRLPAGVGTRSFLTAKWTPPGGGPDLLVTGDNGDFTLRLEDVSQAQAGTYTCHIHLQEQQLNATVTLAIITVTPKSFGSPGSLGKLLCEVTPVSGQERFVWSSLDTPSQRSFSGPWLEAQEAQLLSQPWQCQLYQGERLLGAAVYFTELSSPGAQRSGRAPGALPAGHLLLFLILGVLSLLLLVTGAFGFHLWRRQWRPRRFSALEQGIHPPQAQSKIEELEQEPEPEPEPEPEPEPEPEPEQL

[2] = target: T2, R-PE-labeled recombinant human LAG-3-Fc chimera protein (R&D Systems) (human, UniProt P18627 23-450, conjugated to R-phycoerythrin); experiment: flow cytometric competition, LAG-3-Fc-PE binding to MHCII on A375 cells, antibody 20 ug/mL
T2 construct: bought; also called LAG-3-Fc-PE; soluble LAG-3; not shown: Fc of the bought chimera, not described
T2 sequence: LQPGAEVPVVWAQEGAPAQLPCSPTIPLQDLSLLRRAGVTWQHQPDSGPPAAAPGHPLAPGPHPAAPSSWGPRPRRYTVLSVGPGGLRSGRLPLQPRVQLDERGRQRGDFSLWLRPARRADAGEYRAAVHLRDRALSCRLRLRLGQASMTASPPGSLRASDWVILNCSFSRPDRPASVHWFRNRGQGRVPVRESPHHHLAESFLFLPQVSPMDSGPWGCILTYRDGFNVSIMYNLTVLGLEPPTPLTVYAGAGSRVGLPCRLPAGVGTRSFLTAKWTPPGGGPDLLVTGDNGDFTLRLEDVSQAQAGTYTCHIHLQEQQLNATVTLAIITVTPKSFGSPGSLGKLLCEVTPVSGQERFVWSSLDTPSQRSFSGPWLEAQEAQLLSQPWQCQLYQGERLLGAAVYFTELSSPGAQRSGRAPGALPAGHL

B1: antibody 15595 (antibody, V domains shown)
VH: QVQLVQSGAEVKKPGASVKVSCKVSGYSLTEISMHWVRQAPGKGLEWMGGFDPEDGETIYAQRFQGRVIMTEDTSTDTAYMELSSLRSEDTAVYYCATGGWGPNWFDPWGQGTLVTVSS
VL: DIQMTQSPSSVSASVGDRVTITCRASQGISSWLAWYQQKPGKAPKLLIYAASSLQSGVPSRFSGSGSGTDFTLTISSLQPEDFATYYCQQANSFPFTFGPGTKVDIKR
notes: OmniRat-derived human IgG1 LALA, kappa; also called 15595 (52)
EC50 [1]: 0.05 nM
LAG-3/MHCII Blocking (%) [2]: 94%

B2: antibody 15011 (antibody, human IgG1, lambda, L234A L235A, V domains shown)
VH: EVQLLESGGGLVQPGGSLRLSCAASGFDFRSYAMMWVRQAPGKGLEWVGGINGEVGGSNTYYAPAVKGRATISRDNSKNTLYLQMNSLRAEDTAVYYCVKGAGACGICNDDIDAWGQGTLVTVSS
VL: SYELTQDPAVSVALGQTVRITCSGAGSYAGSYYYGWHQQKPGQAPVTVIYDNDKRPSNIPDRFSGSSSGNTASLTITGAQAEDEADYYCGSTNDNDDGGLFGSGTKVTVLG
notes: humanized chicken-derived antibody, human IgG1 constant region, lambda (IGLC1*01)
LAG-3/MHCII Blocking (%) [2]: 92%

B3: antibody 15646 (antibody, human IgG1, kappa, L234A L235A, V domains shown)
VH: QVQLQQWGAGLLKPSETLSLTCAVYGGSFSGYYWSWIRQPPGKGLEWIGEINHRGSTNYNPSLKSRVTISVDTSKNQFSLKLSSVTAADTAVYYCTRGEEWESLFFDYWGQGTLVTVSS
VL: EIVLTQSPATLSLSPGERATLSCRASQSISSYLAWYQQKPGQAPRLLIYGASNRATGIPARFSGSGSGTDFTLTISSLEPEDFAVYYCQQRSNWPLTFGGGTRVEIKR
notes: OmniRat-derived human IgG1 with L234A/L235A (LALA), kappa; also called 15646 (15)
EC50 [1]: 0.1 nM
LAG-3/MHCII Blocking (%) [2]: 49%

B4: antibody 15431 (antibody, human IgG1, kappa, L234A L235A, V domains shown)
VH: QVQLQQSGPGLVKPSQTLSLTCAISGDSVSSNSAAWNWIRQSPSRGLEWLGRTYYRSKWYNDYAVSVKSRITINPDTSKNQFSLQLNSVTPEDTAVYYCARDDDWNDFDYWGQGTLVTVSS
VL: B3 VL with I29V, G50D, R103K
notes: OmniRat-derived human IgG1 LALA, kappa; also called 15431 (38); 15431 (83)
EC50 [1]: 0.04 nM
LAG-3/MHCII Blocking (%) [2]: 92%

B5: antibody 15532 (antibody, human IgG1, kappa, L234A L235A, V domains shown)
VH: QVQLQQWGAGLLRPSETLSLTCAVYGESFSGYYWNWIRQPPGKGLEWIGEINHSGSTNYNPSLKSRVTISVDTSKTQFSLKLSSVTAADTAVYYCARGWDLLDWNDYWNEYWGQGTLVTVSS
VL: B3 VL with I29V, G50D, R103K
notes: OmniRat-derived human IgG1 LALA, kappa
EC50 [1]: 0.07 nM
LAG-3/MHCII Blocking (%) [2]: 89%

B6: antibody 15723 (antibody, human IgG1, kappa, L234A L235A, V domains shown)
VH: B3 VH with S35N, R54S, T96A, E100D, E102G, S103E, L104S
VL: B3 VL with I29V, G50A, R103K
notes: OmniRat-derived human IgG1 LALA, kappa; also called 15723 (39)
EC50 [1]: 0.09 nM
LAG-3/MHCII Blocking (%) [2]: 55%

B7: antibody 15572 (antibody, human IgG1, kappa, L234A L235A, V domains shown)
VH: QLQLQESGPGLVKPSETLSLTCTVSGDSISSSSYYWGWIRQPPGKGLEWIGSIFYSGNTYYNPSLKSRVTISVDTSKNQFSLKLSSVTAADTAVYYCAREDDFLTDYYGAFDIWGQGTMVTVSS
VL: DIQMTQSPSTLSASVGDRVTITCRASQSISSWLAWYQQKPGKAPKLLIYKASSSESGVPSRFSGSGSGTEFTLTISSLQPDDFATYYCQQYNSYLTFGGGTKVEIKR
notes: OmniRat-derived human IgG1 LALA, kappa; also called 15572 (91)
EC50 [1]: 0.07 nM
LAG-3/MHCII Blocking (%) [2]: 37%
